According to US20110150895A1 (SAMSUNG ELECTRONICS, published 2011):
Blank lines part the entries; values can stand above or below the binder they belong to.

Legend:
[1] = target: T1, recombinant hAng-2 (a recombinant human angiopoietin-2 protein with an attached His tag; R&D Systems) (human, UniProt O15123 19-496); experiment: SPR (BIAcore T100), hAng-2 amine-coupled on CM5 chip, antibody as analyte
T1 construct: Bought reagent; not shown: His tag
T1 sequence (looked up): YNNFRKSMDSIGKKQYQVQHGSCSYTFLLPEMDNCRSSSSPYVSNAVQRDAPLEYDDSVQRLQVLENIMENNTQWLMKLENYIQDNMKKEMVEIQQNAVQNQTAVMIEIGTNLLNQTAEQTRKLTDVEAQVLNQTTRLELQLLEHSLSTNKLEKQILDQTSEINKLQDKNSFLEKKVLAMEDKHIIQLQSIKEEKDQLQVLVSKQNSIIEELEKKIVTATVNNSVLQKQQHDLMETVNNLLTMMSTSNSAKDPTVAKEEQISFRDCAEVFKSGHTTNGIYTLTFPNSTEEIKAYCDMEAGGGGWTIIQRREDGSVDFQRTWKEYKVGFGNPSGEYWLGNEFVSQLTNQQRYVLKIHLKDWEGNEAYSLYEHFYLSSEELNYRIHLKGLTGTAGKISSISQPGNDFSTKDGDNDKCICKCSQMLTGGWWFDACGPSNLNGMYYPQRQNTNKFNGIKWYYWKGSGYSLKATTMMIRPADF
Procedure: The affinity of each of the monoclonal antibodies SAIT-Ang-2-5 and SAIT-Ang-2-6 of Example 1 to angiopoietin-2 was measured using a surface plasmon resonance (SPR) device (BIAcore T100, GE Healthcare). 20 μg/ml recombinant hAng-2 (R&D Systems) was immobilized on a CM5 chip (GE Healthcare) using a pH 4.5 acetate solution and an amine coupling kit (GE Healthcare). Each of the monoclonal antibodies SAIT-Ang-2-5 and SAIT-Ang-2-6 of Example 1 was diluted to eight different concentrations down to 0.78125 nM by serially diluting to ½ each time starting from 100 nM. Then, the antigen/antibody affinity was measured by binding each antibody with the antigen immobilized on the CM5 chip and dissociating the antigen from the antibody using a pH2.2 glycine-HCl solution. […] From the results, the affinity of each monoclonal antibody SAIT-Ang-2-5 and SAIT-Ang-2-6 of Example 1 to angiopoietin-2 was determined.

[2] = target: T1, recombinant hAng-2 (a recombinant human …); experiment: competitive ELISA: inhibition of 1 nM hAng-2 binding to coated hTie2-Fc
Procedure: A 96-well MaxiSorp™ flat-bottom plate (Nunc) was coated with recombinant human Tie2-Fc (hTie2-Fc) (R&D Systems, Inc.) dissolved in DMEM culture containing 50 μg/ml bovine serum albumin (BSA). The hTie-2Fc is a chimeric protein including the water-soluble extracellular region of human Tie-2 and the Fc fragment of human IgG₁. The concentration of hTie2-Fc immobilized was equivalent to 75% of its maximum binding concentration with 1 nM of recombinant hAng-2 (a recombinant human angiopoietin-2 protein with an attached His tag; R&D Systems). The plate was washed with Phosphate Buffered Saline (PBS) containing 0.1% TWEEN-20 five times and blocked with PBS containing 5% BSA at room temperature for two hours. To perform an ELISA experiment for determining whether binding between angiopoietin-2 and Tie-2 was neutralized, each of the monoclonal antibodies SAIT-Ang-2-5 and SAIT-Ang-2-6 prepared according to Example 1 were serially diluted from 100 nM by one-fourth each time with PBS containing 1% BSA and 1 nM hAng-2 and adjusted to a concentration of 6.1 pM. […] The OD₄₅₀ value was read on a plate reader (Molecular Devices). […] Based on the results, each of the monoclonal antibodies SAIT-Ang-2-5 and SAIT-Ang-2-6 of Example 1 was determined to be capable of neutralizing binding between angiopoietin-2 and Tie-2 (refer to Table 1).

Kd [1]: 0.902 nM | koff [1]: 0.00178 s⁻¹ | kon [1]: 1.97e+06 M⁻¹ s⁻¹ | IC50 [2]: 0.764 nM
B1: Monoclonal antibody SAIT-Ang-2-5 (antibody, V domains shown)
VH: DVQLVESGGGLAQPGGSRKLSCAASGFTFSNFGMHWVRQAPEKGLDWVAYISSGSDTIYYADTVKGRFTISRDNPKNTLFLQMTSLRSEDTAMYYCARESTMITMGYVLDYWGQGTSVTVSS
VL: DIQMTQSPASQSASLGESVTITCLASQTIGTWLAWYQQKPGKSPQLLIYAATSLADGVPSRFSGSGSGTKFSLKISSLQAEDFVSYYCQQLYSIPLTIGAGTKLELK
notes: also called antibody of hybridoma KCLRF-BP-00221

Kd [1]: 1.27 nM | koff [1]: 0.00207 s⁻¹ | kon [1]: 1.64e+06 M⁻¹ s⁻¹ | IC50 [2]: 1.86 nM
B2: Monoclonal antibody SAIT-Ang-2-6 (antibody, V domains shown)
VH: QVQLQQPGSELVRPGTSVKLSCKASGYTFTNYLMHWVKQRPGQGLEWIGNIYPGSGATNYDEKFKSKATLTVDISSSTAYMQLISLTSEDSAVYYCTRDDYDGSWFAYWGQGTLVTVSA
VL: DIVMTQSPSSLSVSAGEKVTMTCKSSQSLLISGNQKNFLAWYQQKPGQPPKLLIYGASTRDSGVPDRFTGSGSGTDFTLTISSVQAEDLAVYYCQNDHSYPLTFGTGTKLELK
notes: also called antibody of hybridoma KCLRF-BP-00222
